Data as given in IntAct's records for PubMed 30530185.

B1: Coiled-coil-helix-coiled-coil-helix domain-containing protein 2 (Homo sapiens), Q9Y6H1 (parent)
chain: MPRGSRSRTSRMAPPASRAPQMRAAPRPAPVAQPPAAAPPSAVGSSAAAPRQPGLMAQMATTAAGVAVGSAVGHTLGHAITGGFSGGSNAEPARPDITYQEPQGTQPAQQQQPCLYEIKQFLECAQNQGDIKLCEGFNEVLKQCRLANGLA
partner: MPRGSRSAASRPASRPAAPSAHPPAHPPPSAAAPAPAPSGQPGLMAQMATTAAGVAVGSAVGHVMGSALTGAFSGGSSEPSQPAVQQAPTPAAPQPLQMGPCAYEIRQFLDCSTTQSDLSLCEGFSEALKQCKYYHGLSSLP

Variants of: B1
Conditions: with chc10_human CHCHD10, Q8WYQ3

effect of a mutation on the interaction	Variant
increasing interaction strength	MPRGSRSRTSRMAPPASRAPQMRAAPRPAPVAQPPAAAPPSAVGSSAAAPRQPGLMAQMAITAAGVAVGSAVGHTLGHAITGGFSGGSNAEPARPDITYQEPQGTQPAQQQQPCLYEIKQFLECAQNQGDIKLCEGFNEVLKQCRLANGLA [T61I]
